Tests used:
[1] = tested on: MCM8; assay: Nuclear export of MCM8 detected by nuclear-cytoplasmic separation; type: cell-based
Method: The cells were treated with leptomycin B, a nuclear export inhibitor, to inhibit the protein shuttle out of the nucleus, and the expressions of MCM8 in the cytoplasm (cyto) and the nucleus (nuc) were respectively detected by nuclear-cytoplasmic separation. […] It could be seen that ubiquitination was essential for the nuclear export of MCM8. […] (see Panel f, FIG. 12).

[2] = tested on: MCM8; assay: TRIM21-mediated ubiquitination of MCM8; type: cell-based
[3] = tested on: IFN-I; assay: IFN-I in MCM8-knockdown THP-1 cells stimulated with SeV, with CsA or EtBr (mitochondrion-free p0 cells) treatment; type: cell-based, human; conditions: mitochondrion-free p0 THP-1 cells from EtBr treatment
Method: (§1) To further verify the mechanism of MCM8-cGAS-STING pathway, the inventors knocked down MCM8 in THP-1 cells, stimulated the cells with SeV, and then treated the cells with MTP complex pore inhibitor cyclosporine A (CsA) ([…]) to inhibit the release of mitochondrial DNA. […] The results were similar when the mitochondria in the cells were removed by EtBr treatment. The process was as follows: THP-1 cells were treated with EtBr to completely remove the mitochondrial DNAs in the cells to construct mitochondrion-free p0 cells, MCM8 was knocked down in normal THP-1 or p0 THP-1, the cells were then stimulated with SeV, the expressions of IFN-α and IFN-β were detected by Q-PCR, and the level of pIRF3 (IRF3 protein activated by phosphorylation) was detected by western blot. […] In Panel D, four columns are taken as a group and represent, from left to right, ctrl siRNA blank control group, MCM8 siRNA control group, ctrl siRNA group of mitochondrion-free cells, and MCM8 siRNA group of mitochondrion-free cells. […] On the contrary, drugs that inhibits or eliminats mtDNA can block the function of MCM8 in regulating IFN-I, and MCM8-knockdown activates cGAS-STING-IFN-I signaling pathway by increasing the amount of cytoplasmic mtDNA.

[4] = tested on: pIRF3; assay: pIRF3 level by western blot in normal or p0 THP-1 cells, MCM8 knockdown, SeV stimulation; type: cell-based, human; conditions: mitochondrion-free p0 THP-1 cells from EtBr treatment
Method: as §1

[5] = tested on: IFN-β; assay: IFN-β mRNA level by Q-PCR in 293T cells overexpressing MCM8 or its mutants, stimulated with poly(dA:dT); type: cell-based; conditions: 200 ng overexpressed
Method: Besides the previously found A276P and S365N mutations, the inventors found other point mutations related to Kawasaki disease, namely, S280C mutation and S764A mutation, and further conducted cloning and cell experiments, comprising the steps of using 293T cells to separately overexpress 200 ng MCM8, and each of mutants, namely, MCM8 (A276P), MCM8 (S280C), MCM8 (S365N) and MCM8 (S764A); and 24 hours after transfection, stimulating the cells with poly(dA:dT) for 0, 12 and 24 h, collecting RNA, and detecting the mRNA level of IFN-β by Q-PCR. […] Therefore, it can be further considered that the previously found mutations A276P and S365N in MCM8 are both mutation factors that affect the function of MCM8 in regulating IFN-I and lead to Kawasaki disease, while the mutations S280C and S764A are also newly discovered mutations in systemic vasculitis such as Kawasaki disease. These two mutations may be used to diagnose or assist in the diagnosis of Kawasaki disease and systemic vasculitis diseases similar to Kawasaki disease (e.g., systemic lupus erythematosus).

[6] = tested on: LC3; assay: Binding of full-length, truncated and point-mutated MCM8 to LC3
From the text: Proteins that directly bind to LC3 generally have a LIR motif, the inventors, when predicting with website whether MCM8 has a LIR motif, find that the sequence between the sites MCM8 272-277 is LIR motif. According to the functional domain of MCM8, the inventors constructed truncated mutants in various truncated forms of MCM8 and detected the results of the binding thereof to LC3.
By means of 3D structure prediction, the binding of MCM8 LIR motif to LC3 was simulated (see Panels C and D, FIG. 5).

[7] = tested on: mitochondrial LC3; assay: Western blot of mitochondrial LC3 and mitochondrial proteins in Hela cells overexpressing MCM8; type: cell-based; conditions: with or without LPS or SeV, vs EV control
From the text: Based on the findings in Embodiment 6, MCM8 is related to the amount of cytoplasmic mtDNA and cGAS-STING-IFN-I signaling pathway, while the amount of mtDNA is related to mitophagy, and therefore, the experiment was further carried out as follows. Experiment of MCM8-knockdown inhibiting mitophagy-related proteins: in MCM8-knockdown THP-1 cells, detection indicators related to mitophagy were studied. The cells were stimulated or not stimulated with LPS and SeV, respectively, and the expressions of mitochondrial LC3 and other mitochondrial proteins TOM20, MFN2, PINK1 and COXIV were detected by western blot. It was found from the results that, compared with the control group (Ctrl siRNA), MCM8-knockdown could inhibit the activation of mitochondrial LC3 and increase the amounts of mitochondrial proteins (TOM20, MFN2, PINK1, and COXIV) (see Panel A, FIG. 4). Correspondingly, MCM8 (Flag-MCM8) was overexpressed in Hela cells, the cells were stimulated or not stimulated with LPS and SeV, respectively, and the expressions of mitochondrial LC3 and other mitochondrial proteins (TOM20, MFN2, PINK1, and COXIV) were detected by western blot.

[8] = target: T1, TRIM21 (Homo sapiens, UniProt P19474); assay: Co-immunoprecipitation of Flag-TRIM21 and HA-MCM8 in HeLa cells; type: binding
T1 construct: Flag; expressed in transfected cells; host or cells: HeLa
From the text: Further, HeLa cells were transfected with Flag-TRIM21 and HA-MCM8 and subjected to co-immunoprecipitation analysis.

[9] = stimulation with LPS and poly(dA:dT)

T1 sequence (P19474 whole entry): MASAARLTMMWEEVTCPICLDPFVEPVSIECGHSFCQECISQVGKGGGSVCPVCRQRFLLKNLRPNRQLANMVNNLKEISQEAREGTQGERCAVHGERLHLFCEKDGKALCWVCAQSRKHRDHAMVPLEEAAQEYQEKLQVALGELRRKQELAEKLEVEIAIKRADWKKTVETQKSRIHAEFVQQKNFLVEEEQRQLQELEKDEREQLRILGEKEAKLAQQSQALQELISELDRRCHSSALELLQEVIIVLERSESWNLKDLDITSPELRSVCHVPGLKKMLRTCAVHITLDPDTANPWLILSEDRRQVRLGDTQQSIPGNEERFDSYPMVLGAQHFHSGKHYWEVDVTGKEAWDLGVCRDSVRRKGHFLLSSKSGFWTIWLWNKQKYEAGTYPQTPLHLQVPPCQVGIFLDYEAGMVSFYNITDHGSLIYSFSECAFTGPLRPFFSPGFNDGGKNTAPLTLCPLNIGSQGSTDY

CC(=N)NCc1cccc(CN)c1 [1400W]
nuclear export of MCM8 [1, 9]: inhibited | ubiquitination of MCM8 mediated by TRIM21 [2]: significantly inhibited

CC[n+]1c(-c2ccccc2)c2cc(N)ccc2c2ccc(N)cc21.[Br-] [EtBr]
function of MCM8 in regulating IFN-I (IFN-α and IFN-β expression, Q-PCR) [3]: blocked | expression of pIRF3 protein [4]: significantly inhibited

NS(=O)(=O)OC[C@H]1C[C@@H](Nc2ccnc3cc(-c4cccc(SC(F)(F)F)c4)nn23)[C@H](O)[C@@H]1O [TAK-243]
nuclear export of MCM8 [1, 9]: obviously inhibited

CCC(=C/[C@H](C)C/C=C/C(C)=C/[C@@H](C)C(=O)[C@@H](C)[C@H](O)[C@@H](C)C/C(C)=C/C(=O)O)/C=C/[C@@H]1OC(=O)C=C[C@@H]1C [leptomycin B]
nuclear export of MCM8 ([1]; stimulation with SeV and LPS): significantly inhibited

B1: MCM8: Full-length MCM8 protein (SEQ ID NO: 2), overexpressed in cells (protein, listed as Homo sapiens)
chain: MNGEYRGRGFGRGRFQSWKRGRGGGNFSGKWREREHRPDLSKTTGKRTSEQTPQFLLSTKTPQSMQSTLDRFIPYKGWKLYFSEVYSDSSPLIEKIQAFEKFFTRHIDLYDKDEIERKGSILVDFKELTEGGEVTNLIPDIATELRDAPEKTLACMGLAIHQVLTKDLERHAAELQAQEGLSNDGETMVNVPHIHARVYNYEPLTQLKNVRANYYGKYIALRGTVVRVSNIKPLCTKMAFLCAACGEIQSFPLPDGKYSLPTKCPVPVCRGRSFTALRSSPLTVTMDWQSIKIQELMSDDQREAGRIPRTIECELVHDLVDSCVPGDTVTITGIVKVSNAEEGSRNKNDKCMFLLYIEANSISNSKGQKTKSSEDGCKHGMLMEFSLKDLYAIQEIQAEENLFKLIVNSLCPVIFGHELVKAGLALALFGGSQKYADDKNRIPIRGDPHILVVGDPGLGKSQMLQAACNVAPRGVYVCGNTTTTSGLTVTLSKDSSSGDFALEAGALVLGDQGICGIDEFDKMGNQHQALLEAMEQQSISLAKAGVVCSLPARTSIIAAANPVGGHYNKAKTVSENLKMGSALLSRFDLVFILLDTPNEHHDHLLSEHVIAIRAGKQRTISSATVARMNSQDSNTSVLEVVSEKPLSERLKVVPGETIDPIPHQLLRKYIGYARQYVYPRLSTEAARVLQDFYLELRKQSQRLNSSPITTRQLESLIRLTEARARLELREEATKEDAEDIVEIMKYSMLGTYSDEFGNLDFERSQHGSGMSNRSTAKRFISALNNVAERTYNNIFQFHQLRQIAKELNIQVADFENFIGSLNDQGYLLKKGPKVYQLQTM
modifications: Flag or HA tag
IFN-β level (mRNA, Q-PCR) ([5]; poly(dA:dT) 0 h): 0 | IFN-β level (mRNA, Q-PCR) ([5]; poly(dA:dT) 12 h): 100 | IFN-β level (mRNA, Q-PCR) ([5]; poly(dA:dT) 24 h): 250 | direct binding to LC3 ([6]; mass spectrometry experiments): could directly bind to LC3 | activation of LC3 [7]: promoted the activation of LC3 more obviously | mitochondrial proteins (TOM20, MFN2, PINK1, COXIV) [7]: inhibited the increase of mitochondrial proteins | binding to TRIM21 upon stimulation ([8]; LPS or poly(dA:dT)): the binding increased | binding to E3 ubiquitin ligase TRIM21 ([8]; co-immunoprecipitation): could bind

B2: MCM8 (S280C): MCM8 with point mutation S280C (protein, listed as Homo sapiens)
chain: MNGEYRGRGFGRGRFQSWKRGRGGGNFSGKWREREHRPDLSKTTGKRTSEQTPQFLLSTKTPQSMQSTLDRFIPYKGWKLYFSEVYSDSSPLIEKIQAFEKFFTRHIDLYDKDEIERKGSILVDFKELTEGGEVTNLIPDIATELRDAPEKTLACMGLAIHQVLTKDLERHAAELQAQEGLSNDGETMVNVPHIHARVYNYEPLTQLKNVRANYYGKYIALRGTVVRVSNIKPLCTKMAFLCAACGEIQSFPLPDGKYSLPTKCPVPVCRGRSFTALRSCPLTVTMDWQSIKIQELMSDDQREAGRIPRTIECELVHDLVDSCVPGDTVTITGIVKVSNAEEGSRNKNDKCMFLLYIEANSISNSKGQKTKSSEDGCKHGMLMEFSLKDLYAIQEIQAEENLFKLIVNSLCPVIFGHELVKAGLALALFGGSQKYADDKNRIPIRGDPHILVVGDPGLGKSQMLQAACNVAPRGVYVCGNTTTTSGLTVTLSKDSSSGDFALEAGALVLGDQGICGIDEFDKMGNQHQALLEAMEQQSISLAKAGVVCSLPARTSIIAAANPVGGHYNKAKTVSENLKMGSALLSRFDLVFILLDTPNEHHDHLLSEHVIAIRAGKQRTISSATVARMNSQDSNTSVLEVVSEKPLSERLKVVPGETIDPIPHQLLRKYIGYARQYVYPRLSTEAARVLQDFYLELRKQSQRLNSSPITTRQLESLIRLTEARARLELREEATKEDAEDIVEIMKYSMLGTYSDEFGNLDFERSQHGSGMSNRSTAKRFISALNNVAERTYNNIFQFHQLRQIAKELNIQVADFENFIGSLNDQGYLLKKGPKVYQLQTM
IFN-β level (mRNA, Q-PCR) ([5]; poly(dA:dT) 24 h): below 250

B3: MCM8 (A276P): MCM8 with point mutation A276P in the LIR motif, found in Kawasaki disease patients (protein)
chain: MNGEYRGRGFGRGRFQSWKRGRGGGNFSGKWREREHRPDLSKTTGKRTSEQTPQFLLSTKTPQSMQSTLDRFIPYKGWKLYFSEVYSDSSPLIEKIQAFEKFFTRHIDLYDKDEIERKGSILVDFKELTEGGEVTNLIPDIATELRDAPEKTLACMGLAIHQVLTKDLERHAAELQAQEGLSNDGETMVNVPHIHARVYNYEPLTQLKNVRANYYGKYIALRGTVVRVSNIKPLCTKMAFLCAACGEIQSFPLPDGKYSLPTKCPVPVCRGRSFTPLRSSPLTVTMDWQSIKIQELMSDDQREAGRIPRTIECELVHDLVDSCVPGDTVTITGIVKVSNAEEGSRNKNDKCMFLLYIEANSISNSKGQKTKSSEDGCKHGMLMEFSLKDLYAIQEIQAEENLFKLIVNSLCPVIFGHELVKAGLALALFGGSQKYADDKNRIPIRGDPHILVVGDPGLGKSQMLQAACNVAPRGVYVCGNTTTTSGLTVTLSKDSSSGDFALEAGALVLGDQGICGIDEFDKMGNQHQALLEAMEQQSISLAKAGVVCSLPARTSIIAAANPVGGHYNKAKTVSENLKMGSALLSRFDLVFILLDTPNEHHDHLLSEHVIAIRAGKQRTISSATVARMNSQDSNTSVLEVVSEKPLSERLKVVPGETIDPIPHQLLRKYIGYARQYVYPRLSTEAARVLQDFYLELRKQSQRLNSSPITTRQLESLIRLTEARARLELREEATKEDAEDIVEIMKYSMLGTYSDEFGNLDFERSQHGSGMSNRSTAKRFISALNNVAERTYNNIFQFHQLRQIAKELNIQVADFENFIGSLNDQGYLLKKGPKVYQLQTM
binding to LC3 ([6]; MCM8 constructs with or without LIR motif): greatly reduced
